We go through three substances from paper PMC8957996.

The target in test [1] is [Ala^1]gA. Description: single-channel electrophysiology (planar lipid bilayer); DLoPC/n-decane bilayer (25 uM butylated hydroxytoluene in the bilayer-forming solution), AgA(15) and gA^-(13) together, 1 M NaCl, pH 7 (10 mM HEPES), 200 mV, 500 Hz; 25 ± 1 °C.
Test [2] deals with [Ala^1]gA. Description: single-channel electrophysiology (planar lipid bilayer); DoPC (ether phospholipid)/n-decane bilayer, AgA(15) and gA^-(13) together, 1 M NaCl, pH 7 (10 mM HEPES), 200 mV, 500 Hz; 25 ± 1 °C.
Test [3] addresses [Ala^1]gA. Description: single-channel electrophysiology (planar lipid bilayer); DOPC/n-decane bilayer, AgA(15) and gA^-(13) together, 1 M NaCl, pH 7, 200 mV, 500 Hz; 25 ± 1 °C.
Test [4] has as its target [Val^1]gA. Description: single-channel electrophysiology (planar lipid bilayer); DOPE:DOPC (3:1)/n-decane bilayer, 1.0 M NaCl, unbuffered (pH 6-7); bilayer punch method, 25 ± 1 °C, 200 mV, 100 Hz.
Test [5] has as its target [Val^1]gA. Description: single-channel electrophysiology (planar lipid bilayer); DOPE:DOPC (1:1)/n-decane bilayer, 1.0 M NaCl, unbuffered (pH 6-7); bilayer punch method, 25 ± 1 °C, 200 mV, 100 Hz.
Test [6] deals with [Val^1]gA. As to the kind of experiment: single-channel electrophysiology (planar lipid bilayer); DOPE:DOPC (4:1)/n-decane bilayer, 0.1 M Na+, pH 1; bilayer punch method, 25 ± 1 °C, ±200 mV.
Test [7] concerns the target [Val^1]gA. Description: single-channel electrophysiology (planar lipid bilayer); DOPE:DOPC (4:1)/n-decane bilayer, 0.1 M Na+, pH 5 (Gly-Gly); bilayer punch method, 25 ± 1 °C, ±200 mV.
The target in test [8] is [Val^1]gA. Description: single-channel electrophysiology (planar lipid bilayer); DOPS/n-decane bilayer, 0.1 M Na+, pH 7 (Na2HPO4); bilayer punch method, 25 ± 1 °C, ±200 mV.
Test [9] addresses [Val^1]gA. As to the kind of experiment: single-channel electrophysiology (planar lipid bilayer); DOPS/n-decane bilayer, 0.1 M Na+, pH 3 (Gly-Gly); bilayer punch method, 25 ± 1 °C, ±200 mV.
Test [10] addresses [Val^1]gA. Description: single-channel electrophysiology (planar lipid bilayer); DOPE:DOPC (1:3)/n-decane bilayer, 1.0 M NaCl, unbuffered (pH 6-7); bilayer punch method, 25 ± 1 °C, 200 mV, 100 Hz.
For test [11], the target named is [Val^1]gA. Description: single-channel electrophysiology (planar lipid bilayer); DOPS/n-decane bilayer, 0.1 M Na+, pH 8 (Na2HPO4); bilayer punch method, 25 ± 1 °C, ±200 mV; monomers in opposing monolayers dimerise to the conducting channel.
The target in test [12] is [Val^1]gA. As to the kind of experiment: single-channel electrophysiology (planar lipid bilayer); DOPE:DOPC (4:1)/n-decane bilayer, 0.1 M Na+, pH 9 (Na2HPO4); bilayer punch method, 25 ± 1 °C, ±200 mV.
Test [13] deals with [Val^1]gA. Description: single-channel electrophysiology (planar lipid bilayer); DOPC/n-decane bilayer, 1.0 M NaCl, unbuffered (pH 6-7); bilayer punch method, 25 ± 1 °C, 200 mV, 100 Hz.
The target in test [14] is [Val^1]gA. Description: single-channel electrophysiology (planar lipid bilayer); DOPS:DOPE (1:2)/n-decane bilayer, 0.1 M Na+, pH 7 (HEPES); bilayer punch method, 25 ± 1 °C, ±200 mV.
In test [15] the target is [Val^1]gA. Description: single-channel electrophysiology (planar lipid bilayer); DOPS/n-decane bilayer, 0.1 M Na+, pH 4 (Gly-Gly); bilayer punch method, 25 ± 1 °C, ±200 mV.
In test [16] the target is [Val^1]gA. Description: single-channel electrophysiology (planar lipid bilayer); DOPS/n-decane bilayer, 0.1 M Na+, pH 7 (HEPES); bilayer punch method, 25 ± 1 °C, ±200 mV.
For test [17], the target named is [Val^1]gA. As to the kind of experiment: single-channel electrophysiology (planar lipid bilayer); DOPE:DOPC (4:1)/n-decane bilayer, 0.1 M Na+, pH 7.8 (Na2HPO4); bilayer punch method, 25 ± 1 °C, ±200 mV.
The target in test [18] is [Val^1]gA. Description: single-channel electrophysiology (planar lipid bilayer); DOPE:DOPC (4:1)/n-decane bilayer, 0.1 M Na+, pH 0; bilayer punch method, 25 ± 1 °C, ±200 mV.
Test [19] addresses [Val^1]gA. Description: single-channel electrophysiology (planar lipid bilayer); DOPS/n-decane bilayer, 0.1 M Na+, pH 6 (Na2HPO4); bilayer punch method, 25 ± 1 °C, ±200 mV.
Test [20] has as its target [Val^1]gA. Description: single-channel electrophysiology (planar lipid bilayer); DOPS:DOPC (1:2)/n-decane bilayer, 0.1 M Na+, pH 7 (HEPES); bilayer punch method, 25 ± 1 °C, ±200 mV.
In test [21] the target is [Val^1]gA. Description: single-channel electrophysiology (planar lipid bilayer); DOPE:DOPC (4:1)/n-decane bilayer, 0.1 M Na+, pH 3 (Gly-Gly); bilayer punch method, 25 ± 1 °C, ±200 mV.
In test [22] the target is [Val^1]gA. Description: single-channel electrophysiology (planar lipid bilayer); DOPS/n-decane bilayer, 0.1 M Na+, pH 5 (Gly-Gly); bilayer punch method, 25 ± 1 °C, ±200 mV.
The target in test [23] is des-(Val^1-Gly^2)gA^–. As to the kind of experiment: single-channel electrophysiology (planar lipid bilayer); DLoPC/n-decane bilayer (25 uM butylated hydroxytoluene in the bilayer-forming solution), AgA(15) and gA^-(13) together, 1 M NaCl, pH 7 (10 mM HEPES), 200 mV, 500 Hz; 25 ± 1 °C.
Test [24] has as its target des-(Val^1-Gly^2)gA^–. As to the kind of experiment: single-channel electrophysiology (planar lipid bilayer); DoPC (ether phospholipid)/n-decane bilayer, AgA(15) and gA^-(13) together, 1 M NaCl, pH 7 (10 mM HEPES), 200 mV, 500 Hz; 25 ± 1 °C.
Test [25] concerns the target des-(Val^1-Gly^2)gA^–. As to the kind of experiment: single-channel electrophysiology (planar lipid bilayer); DOPC/n-decane bilayer, AgA(15) and gA^-(13) together, 1 M NaCl, pH 7, 200 mV, 500 Hz; 25 ± 1 °C.

Turning to [Ala^1]gA (peptide), the channel lifetime tau (= 1/k-1, dissociation of the dimer) in [Ala^1]gA [1] came out at 823 ms; in test [Ala^1]gA [2] it was 296 ms; in [Ala^1]gA [3] it was 170 ms.

For the substance [Val^1]gA (peptide), the channel lifetime tau (= 1/k-1, dissociation of the dimer) in [Val^1]gA [4] amounted to 260 ms; in test [Val^1]gA [5] it was 240 ms; in [Val^1]gA [6] it was 90 ms; in test [Val^1]gA [7], 80 ms; in test [Val^1]gA [8], 1320 ms; in test [Val^1]gA [9] it was 170 ms. In addition, the channel lifetime tau (= 1/k-1, dissociation of the dimer) in test [Val^1]gA [10] worked out at 350 ms; in test [Val^1]gA [11], 1380 ms; in test [Val^1]gA [12], 150 ms; in [Val^1]gA [13], 550 ms; in [Val^1]gA [14], 140 ms; in [Val^1]gA [15], 270 ms. The channel lifetime tau (= 1/k-1, dissociation of the dimer) worked out at 1340 ms in test [Val^1]gA [16]; 100 ms in test [Val^1]gA [17]; 220 ms in test [Val^1]gA [18]; 920 ms in [Val^1]gA [19]; 470 ms in test [Val^1]gA [20]; 70 ms in test [Val^1]gA [21]. This substance gave a channel lifetime tau (= 1/k-1, dissociation of the dimer) in [Val^1]gA [22] of 800 ms. This substance showed a fold decrease of k1 (association rate constant) against DOPC bilayers in [Val^1]gA [4] of 10 fold. In test [Val^1]gA [4], the fold decrease of the dimerization constant KD (= k1·τ) against DOPC bilayers worked out at 20 fold. Besides, the channel lifetime tau (single experiment) in [Val^1]gA [5] was determined as 229 ms; in [Val^1]gA [7], 65 ms; in test [Val^1]gA [10], 304 ms; in test [Val^1]gA [12] it was 162 ms; in test [Val^1]gA [13], 563 ms; in test [Val^1]gA [14], 143 ms. For the same substance, the channel lifetime tau (single experiment) in test [Val^1]gA [18] was determined as 235 ms; in test [Val^1]gA [20] it was 486 ms. The same substance gave a fold decrease of k1 (association rate constant) against pH 7 in [Val^1]gA [9] of 100 to 400 fold. The substance further returned a fold decrease of the dimerization constant KD (= k1·τ) against pH 7 in [Val^1]gA [9] of 1000 fold.

For the substance des-(Val^1-Gly^2)gA^– (peptide), the values for the channel lifetime tau (= 1/k-1, dissociation of the dimer) with des-(Val^1-Gly^2)gA^– [23], with des-(Val^1-Gly^2)gA^– [24] and with des-(Val^1-Gly^2)gA^– [25] were 61 ms, 29 ms and 13.8 ms, respectively.
